Measured values published in article PMC10540216, “Activity Guided Azide-methyllysine Photo-trapping for Substrate Profiling of Lysine Demethylases” (Journal of the American Chemical Society, 2023).

These molecules were tested on KDM4A-I71AzF (assay: CASI: photo-crosslinking with HEK293T cell extracts, StrepTactin enrichment and LC-MS/MS proteomics). Details: sheet "Final results but with 0.01".
Assay type: binding, human
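Further: lysates from HEK293T cells pretreated with a KDM4 inhibitor to raise proteome methylation, affinity-purified after ±UV, gel-resolved, trypsin-digested, with exclusive unique peptides per protein averaged per condition.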

Row | Molecule | Fold change (+UV/-UV)
1 | TCPQ_HUMAN (protein, UniProt P50990 2-548, looked up) T-complex protein 1 subunit …: ALHVPKAPGFAQMLKEGAKHFSGLEEAVYRNIQACKELAQTTRTAYGPNGMNKMVINHLEKLFVTNDAATILRELEVQHPAAKMIVMASHMQEQEVGDGTNFVLVFAGALLELAEELLRIGLSVSEVIEGYEIACRKAHEILPNLVCCSAKNLRDIDEVSSLLRTSIMSKQYGNEVFLAKLIAQACVSIFPDSGHFNVDNIRVCKILGSGISSSSVLHGMVFKKETEGDVTSVKDAKIAVYSCPFDGMITETKGTVLIKTAEELMNFSKGEENLMDAQVKAIADTGANVVVTGGKVADMALHYANKYNIMLVRLNSKWDLRRLCKTVGATALPRLTPPVLEEMGHCDSVYLSEVGDTQVVVFKHEKEDGAISTIVLRGSTDNLMDDIERAVDDGVNTFKVLTRDKRLVPGGGATEIELAKQITSYGETCPGLEQYAIKKFAEAFEAIPRALAENSGVKANEVISKLYAVHQEGNKNVGLDIEAEVPAVKDMLEAGILDTYLGKYWAIKLATNAAVTVLRVDQIIMAKPAGGPKPPSGKKDWDDDQND | 1
2 | LYSC_HUMAN (protein, UniProt P61626 19-148, looked up) Lysozyme C: KVFERCELARTLKRLGMDGYRGISLANWMCLAKWESGYNTRATNYNAGDRSTDYGIFQINSRYWCNDGKTPGAVNACHLSCSALLQDNIADAVACAKRVVRDPQGIRAWVAWRNRCQNRDVRQYVQGCGV | 200
3 | PDC6I_HUMAN (protein, UniProt Q8WUM4 2-868, looked up) Programmed cell death …: ATFISVQLKKTSEVDLAKPLVKFIQQTYPSGGEEQAQYCRAAEELSKLRRAAVGRPLDKHEGALETLLRYYDQICSIEPKFPFSENQICLTFTWKDAFDKGSLFGGSVKLALASLGYEKSCVLFNCAALASQIAAEQNLDNDEGLKIAAKHYQFASGAFLHIKETVLSALSREPTVDISPDTVGTLSLIMLAQAQEVFFLKATRDKMKDAIIAKLANQAADYFGDAFKQCQYKDTLPKEVFPVLAAKHCIMQANAEYHQSILAKQQKKFGEEIARLQHAAELIKTVASRYDEYVNVKDFSDKINRALAAAKKDNDFIYHDRVPDLKDLDPIGKATLVKSTPVNVPISQKFTDLFEKMVPVSVQQSLAAYNQRKADLVNRSIAQMREATTLANGVLASLNLPAAIEDVSGDTVPQSILTKSRSVIEQGGIQTVDQLIKELPELLQRNREILDESLRLLDEEEATDNDLRAKFKERWQRTPSNELYKPLRAEGTNFRTVLDKAVQADGQVKECYQSHRDTIVLLCKPEPELNAAIPSANPAKTMQGSEVVNVLKSLLSNLDEVKKEREGLENDLKSVNFDMTSKFLTALAQDGVINEEALSVTELDRVYGGLTTKVQESLKKQEGLLKNIQVSHQEFSKMKQSNNEANLREEVLKNLATAYDNFVELVANLKEGTKFYNELTEILVRFQNKCSDIVFARKTERDELLKDLQQSIAREPSAPSIPTPAYQSSPAGGHAPTPPTPAPRTMPPTKPQPPARPPPPVLPANRAPSATAPSPVGAGTAAPAPSQTPGSAPPPQAQGPPYPTYPGYPGYCQMPMPMGYNPYAYGQYNMPYPPVYHQSPGQAPYPGPQQPSYPFPQPPQQSYYPQQ | 200
4 | RAD50_HUMAN (protein, UniProt Q92878 1-1312, looked up) DNA repair protein RAD50: MSRIEKMSILGVRSFGIEDKDKQIITFFSPLTILVGPNGAGKTTIIECLKYICTGDFPPGTKGNTFVHDPKVAQETDVRAQIRLQFRDVNGELIAVQRSMVCTQKSKKTEFKTLEGVITRTKHGEKVSLSSKCAEIDREMISSLGVSKAVLNNVIFCHQEDSNWPLSEGKALKQKFDEIFSATRYIKALETLRQVRQTQGQKVKEYQMELKYLKQYKEKACEIRDQITSKEAQLTSSKEIVKSYENELDPLKNRLKEIEHNLSKIMKLDNEIKALDSRKKQMEKDNSELEEKMEKVFQGTDEQLNDLYHNHQRTVREKERKLVDCHRELEKLNKESRLLNQEKSELLVEQGRLQLQADRHQEHIRARDSLIQSLATQLELDGFERGPFSERQIKNFHKLVRERQEGEAKTANQLMNDFAEKETLKQKQIDEIRDKKTGLGRIIELKSEILSKKQNELKNVKYELQQLEGSSDRILELDQELIKAERELSKAEKNSNVETLKMEVISLQNEKADLDRTLRKLDQEMEQLNHHTTTRTQMEMLTKDKADKDEQIRKIKSRHSDELTSLLGYFPNKKQLEDWLHSKSKEINQTRDRLAKLNKELASSEQNKNHINNELKRKEEQLSSYEDKLFDVCGSQDFESDLDRLKEEIEKSSKQRAMLAGATAVYSQFITQLTDENQSCCPVCQRVFQTEAELQEVISDLQSKLRLAPDKLKSTESELKKKEKRRDEMLGLVPMRQSIIDLKEKEIPELRNKLQNVNRDIQRLKNDIEEQETLLGTIMPEEESAKVCLTDVTIMERFQMELKDVERKIAQQAAKLQGIDLDRTVQQVNQEKQEKQHKLDTVSSKIELNRKLIQDQQEQIQHLKSTTNELKSEKLQISTNLQRRQQLEEQTVELSTEVQSLYREIKDAKEQVSPLETTLEKFQQEKEELINKKNTSNKIAQDKLNDIKEKVKNIHGYMKDIENYIQDGKDDYKKQKETELNKVIAQLSECEKHKEKINEDMRLMRQDIDTQKIQERWLQDNLTLRKRNEELKEVEEERKQHLKEMGQMQVLQMKSEHQKLEENIDNIKRNHNLALGRQKGYEEEIIHFKKELREPQFRDAEEKYREMMIVMRTTELVNKDLDIYYKTLDQAIMKFHSMKMEEINKIIRDLWRSTYRGQDIEYIEIRSDADENVSASDKRRNYNYRVVMLKGDTALDMRGRCSAGQKVLASLIIRLALAETFCLNCGIIALDEPTTNLDRENIESLAHALVEIIKSRSQQRNFQLLVITHDEDFVELLGRSEYVEKFYRIKKNIDQCSEIVKCSVSSLGFNVH | 200
5 | ADAS_HUMAN (protein, UniProt O00116 59-658, looked up) Alkyldihydroxyacetonephosphate …: KARRAASAATAAPTATPAAQESGTIPKKRQEVMKWNGWGYNDSKFIFNKKGQIELTGKRYPLSGMGLPTFKEWIQNTLGVNVEHKTTSKASLNPSDTPPSVVNEDFLHDLKETNISYSQEADDRVFRAHGHCLHEIFLLREGMFERIPDIVLWPTCHDDVVKIVNLACKYNLCIIPIGGGTSVSYGLMCPADETRTIISLDTSQMNRILWVDENNLTAHVEAGITGQELERQLKESGYCTGHEPDSLEFSTVGGWVSTRASGMKKNIYGNIEDLVVHIKMVTPRGIIEKSCQGPRMSTGPDIHHFIMGSEGTLGVITEATIKIRPVPEYQKYGSVAFPNFEQGVACLREIAKQRCAPASIRLMDNKQFQFGHALKPQVSSIFTSFLDGLKKFYITKFKGFDPNQLSVATLLFEGDREKVLQHEKQVYDIAAKFGGLAAGEDNGQRGYLLTYVIAYIRDLALEYYVLGESFETSAPWDRVVDLCRNVKERITRECKEKGVQFAPFSTCRVTQTYDAGACIYFYFAFNYRGISDPLTVFEQTEAAAREEILANGGSLSHHHGVGKLRKQWLKESISDVGFGMLKSVKEYVDPNNIFGNRNLL | 200
6 | MPP6_HUMAN (protein, UniProt Q99547 1-160, looked up) M-phase phosphoprotein 6: MAAERKTRLSKNLLRMKFMQRGLDSETKKQLEEEEKKIISEEHWYLDLPELKEKESFIIEEQSFLLCEDLLYGRMSFRGFNPEVEKLMLQMNAKHKAEEVEDETVELDVSDEEMARRYETLVGTIGKKFARKRDHANYEEDENGDITPIKAKKMFLKPQD | 200
7 | CKAP4_HUMAN (protein, UniProt Q07065 1-602, looked up) Cytoskeleton-associated …: MPSAKQRGSKGGHGAASPSEKGAHPSGGADDVAKKPPPAPQQPPPPPAPHPQQHPQQHPQNQAHGKGGHRGGGGGGGKSSSSSSASAAAAAAAASSSASCSRRLGRALNFLFYLALVAAAAFSGWCVHHVLEEVQQVRRSHQDFSRQREELGQGLQGVEQKVQSLQATFGTFESILRSSQHKQDLTEKAVKQGESEVSRISEVLQKLQNEILKDLSDGIHVVKDARERDFTSLENTVEERLTELTKSINDNIAIFTEVQKRSQKEINDMKAKVASLEESEGNKQDLKALKEAVKEIQTSAKSREWDMEALRSTLQTMESDIYTEVRELVSLKQEQQAFKEAADTERLALQALTEKLLRSEESVSRLPEEIRRLEEELRQLKSDSHGPKEDGGFRHSEAFEALQQKSQGLDSRLQHVEDGVLSMQVASARQTESLESLLSKSQEHEQRLAALQGRLEGLGSSEADQDGLASTVRSLGETQLVLYGDVEELKRSVGELPSTVESLQKVQEQVHTLLSQDQAQAARLPPQDFLDRLSSLDNLKASVSQVEADLKMLRTAVDSLVAYSVKIETNENNLESAKGLLDDLRNDLDRLFVKVEKIHEKV | 200
